# Assay results taken from patent US20200338209A1, “ANTI-B7-H3 ANTIBODIES AND ANTIBODY DRUG CONJUGATES” (AbbVie Inc., priority 2016, published 2020).
# T1: human B7-H3 (4Ig-B7-H3 variant) (Homo sapiens, UniProt Q5ZPR3)
# T1 construct: His tag (6xHis) (C)
# T1 sequence (Q5ZPR3 with tags, fused parts or gaps): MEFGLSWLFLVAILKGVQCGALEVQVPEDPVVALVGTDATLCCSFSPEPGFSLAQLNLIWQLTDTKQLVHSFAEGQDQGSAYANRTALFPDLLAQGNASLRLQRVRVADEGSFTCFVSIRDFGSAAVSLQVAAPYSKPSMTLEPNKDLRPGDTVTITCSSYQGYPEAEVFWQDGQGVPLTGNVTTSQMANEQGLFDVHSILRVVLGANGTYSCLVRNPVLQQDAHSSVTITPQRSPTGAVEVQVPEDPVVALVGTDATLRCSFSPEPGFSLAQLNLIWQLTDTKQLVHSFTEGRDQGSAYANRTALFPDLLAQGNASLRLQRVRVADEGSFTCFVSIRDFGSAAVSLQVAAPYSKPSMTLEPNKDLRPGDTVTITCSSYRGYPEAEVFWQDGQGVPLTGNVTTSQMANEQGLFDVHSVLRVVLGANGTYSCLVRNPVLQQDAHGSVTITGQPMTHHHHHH
# B1: Ab6: mouse hybridoma derived anti-B7-H3 monoclonal antibodies (mAbs) (antibody, V domains shown)
# VH: QVQLQQSGAELMKPGASVKISCKATGYTFSRYWIEWVKQRPGHGLEWIGEILPGSGSTNYNEKFKGKATFTADTSSNTAYMQVSSLTSEDSAVHYCARRGYGYVPYALDYWGQGTSVTVSS
# VL: EIQMTQTTSSLSASLGDRVTISCRASQDISNSLNWYQQKPDGTVNLLIYYTSRLYSGVPSRFSGSGSGTDYSLTISNLEQEDIATYFCQQGNTLPYTFGGGTKLEIK
# B2: huAb3v4-CZ (conjugate)
# VH: EVQLVQSGAEVKKPGSSVKVSCKASGYTFSSYWMHWVRQAPGQGLEWMGLIHPDSGSTNYNEMFKNRVTITADKSTSTAYMELSSLRSEDTAVYYCARGGRLYFDYWGQGTTVTVSS
# VL: DVVMTQSPLSLPVTPGEPASISCRSSQSLVHSNGDTYLRWYLQKPGQSPQLLIYKVSNRFSGVPDRFSGSGSGTDFTLKISRVEAEDVGVYYCSQSTHVPYTFGGGTKVEIK
# modifications: drug conjugate CZ; Synthetic huAb3VH.1, huAb3v1, and huAb3v4 VH amino acid sequence; Synthetic huAb3VL.1b, huAb3v4, huAb3v5, and huAb3v6 VL amino acid sequence
# B3: Ab17: mouse hybridoma derived anti-B7-H3 monoclonal antibodies (mAbs) (antibody, V domains shown)
# VH: EVKLVESGGGLVQPGGSLKLSCAASGFTFSSYIMSWVRQTPEKRLEWVASIVSSNITYYPDSMKGRFTISRDNARNILYLQMSSLKSEDTAMYYCARSGTRAWFAYWGQGTLVTVSA
# VL: DIVLTQSPASLAVSLGQRATISCRASKSVSTSAYSYMHWYQQKPGQPPKLLIYLASNLESGVPARFSGSGSGTDFTLNIHPVEEEDAATYYCQHSRELPYTFGGGTKLEIK
# B4: Ab7: mouse hybridoma derived anti-B7-H3 monoclonal antibodies (mAbs) (antibody, V domains shown)
# VH: EVQLVESGENLVKPGGSLKLSCAASGFSFRGYGMSWVRQTPDKRLEWVAAISTGGNYTYYPDSVQGRFTISRDNANNTLYLQMSSLKSEDTAMYYCARRGGNYAGFAYWGQGTLVTVSA
# VL: DIQMTQSPASLSVSVGETVTITCRPSENIYSNLAWYQQKQGKSPQLLVYAATNLADGVPSRFSGSGSGTQYSLKINSLQSEDFGTYYCQHFWGTPFTFGSGTKLEIK
# What was measured:
# [1] = molecular target: T1, human B7-H3 (4Ig-B7-H3 variant); test: Biacore T200 SPR binding kinetics, mAb capture, soluble ECD of human B7-H3; settings: 1:1 binding model
# Method: (§1) The binding affinity of the purified anti-B7-H3 monoclonal antibodies was determined by surface […]. […] The binding kinetics were derived from SPR measurements using a Biacore T200 instrument and a mAb capture approach (as described in the materials and methods below).
# (§2) Biacore T200 SPR instruments were used to measure the binding kinetics of human B7-H3 (4Ig-B7-H3 variant) (analyte) binding to various mAbs (ligands). The assay format was Fc-based capture via immobilized anti-mouse (Fc) (Pierce 31170) or immobilized anti-human (Fc) (Pierce 31125). A standard amine coupling protocol was employed to immobilize the capture reagents via primary amines to the carboxy-methyl (CM) dextran surface of CM5 sensorchips (Biacore); capture antibodies were coupled to a level of approximately 5000RU. For binding kinetic measurements the assay buffer was HBS-EP+ (Biacore): 10 mM Hepes, pH7.4, 150 mM NaCl, 3 mM EDTA, 0.05% polysorbate 20. During the assay, all measurements were referenced against the capture surface alone. Each assay cycle consisted of the following steps: 1) Capture of ligand to approximately 50RU; 2) Analyte injection over both reference and test surface, 240 μL at 80 μL/min, after which the dissociation was monitored for 900 seconds at 80 μL/min; 3) Regeneration of capture surface with low pH glycine. For kinetic determinations analyte injections were 3-point, 9-fold dilution series of 900 nM, 100 nM and 11.11 nM, buffer only injections were included for secondary referencing. Data were processed and fit to a 1:1 binding model using Biacore T200 Evaluation Software to determine the binding kinetic rate constants, ka (on-rate) and kd (off-rate), and the equilibrium dissociation constant (affinity, KD).
# [2] = system: cyno B7-H3; test: Biacore T200 SPR binding kinetics, mAb capture, soluble ECD of cyno B7-H3; set-up: species or system cynomolgus monkey; settings: 1:1 binding model
# Method: [The source words this procedure for another species and reports this species under the same test.] as §1, §2
# [3] = Percentage aggregation of ADCs by size exclusion chromatography (SEC); format: physicochemical; settings: humanized Ab3-CZ variants, Table 14
# Method: The DAR and percentage aggregation of ADCs synthesized were determined by LC-MS and size exclusion chromatography (SEC), respectively.
# Size exclusion chromatography was performed using a Shodex KW802.5 column in 0.2 M potassium phosphate pH 6.2 with 0.25 mM potassium chloride and 15% IPA at a flow rate of 0.75 ml/min. The peak area absorbance at 280 nm was determined for each of the high molecular weight and monomeric eluents by integration of the area under the curve. The % aggregate fraction of the conjugate sample was determined by dividing the peak area absorbance at 280 nm for the high molecular weight eluent by the sum of the peak area absorbances at […] of the high molecular weight and monomeric eluents multiplied by 100%.
# Chain of cyno B7-H3 (as listed by the source): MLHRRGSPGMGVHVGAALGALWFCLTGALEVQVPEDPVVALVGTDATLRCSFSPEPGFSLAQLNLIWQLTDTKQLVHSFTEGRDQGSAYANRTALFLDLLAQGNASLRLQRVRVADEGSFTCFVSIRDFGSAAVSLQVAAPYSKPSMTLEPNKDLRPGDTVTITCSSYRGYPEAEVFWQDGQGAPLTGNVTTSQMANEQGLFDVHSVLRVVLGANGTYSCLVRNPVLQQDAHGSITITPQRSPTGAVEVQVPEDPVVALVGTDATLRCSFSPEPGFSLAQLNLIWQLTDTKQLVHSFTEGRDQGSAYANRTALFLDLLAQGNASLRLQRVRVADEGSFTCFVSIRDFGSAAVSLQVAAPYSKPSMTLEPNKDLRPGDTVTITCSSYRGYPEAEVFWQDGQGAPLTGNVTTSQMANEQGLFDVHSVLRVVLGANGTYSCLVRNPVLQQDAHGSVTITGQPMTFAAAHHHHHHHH
molecule,measurement,setting,value
B1,ka (1/Ms) huB7-H3,[1],12000 M⁻¹ s⁻¹
same,kd (1/s) huB7-H3,[1],0.01 s⁻¹
same,ka (1/Ms) cynoB7-H3,[2],28000 M⁻¹ s⁻¹
same,kd (1/s) cynoB7-H3,[2],0.012 s⁻¹
B2,% agg by SEC,[3],3.1%
B3,ka (1/Ms) huB7-H3,[1],540000 M⁻¹ s⁻¹
same,kd (1/s) huB7-H3,[1],1.9e-05 s⁻¹
same,ka (1/Ms) cynoB7-H3,[2],510000 M⁻¹ s⁻¹
same,kd (1/s) cynoB7-H3,[2],1e-05 s⁻¹
B4,KD (M) huB7-H3,[1],little observable binding
same,KD (M) cynoB7-H3,[2],little observable binding
